Test results reported in the supplement of paper PMC9112550, “Optimization of the antimicrobial peptide Bac7 by deep mutational scanning” (BMC Biology, 2022).

Test system: Escherichia coli TOP10
Assay: shrunken log2 fold change of peptide-encoding DNA abundance (4.5 h post-induction vs induction); higher = less antimicrobial activity (less host growth inhibition)
Settings: time post-induction: 4.5 h; library: site-saturation at positions 5, 18, 19, 20
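Also: peptides expressed intracellularly from a pBAD plasmid library in pooled LB shake-flask culture, induced with 0.3% L-arabinose, DNA abundance read by NGS, three biological replicates, DESeq2 with apeglm shrinkage.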

Sequence	shrunken log2 fold change
RRIRERPPRLPRPRPRPNKWPRP	-0.576
RRIRRRPPRLPRPRPRPPCLPRP	0.426
RRIRYRPPRLPRPRPRPPPFPRP	0.328
RRIRTRPPRLPRPRPRPYILPRP	-0.0244
RRIRLRPPRLPRPRPRPQNAPRP	0.223
RRIRERPPRLPRPRPRPRMHPRP	0.0795
RRIRLRPPRLPRPRPRPEWLPRP	0.315
RRIRGRPPRLPRPRPRPLHGPRP	0.212
RRIRHRPPRLPRPRPRPYWWPRP	-0.196
RRIRGRPPRLPRPRPRPSVNPRP	0.2
RRIRQRPPRLPRPRPRPKYLPRP	-0.0386
RRIRSRPPRLPRPRPRPTLKPRP	-0.139
RRIRCRPPRLPRPRPRPLQMPRP	-0.182
RRIRGRPPRLPRPRPRPRSMPRP	0.666
RRIRLRPPRLPRPRPRPHGIPRP	-0.017
RRIRWRPPRLPRPRPRPDIIPRP	0.0562
RRIRTRPPRLPRPRPRPIHLPRP	0.0312
RRIRLRPPRLPRPRPRPKCFPRP	-0.00607
RRIRRRPPRLPRPRPRPMENPRP	0.113
RRIRVRPPRLPRPRPRPAVWPRP	0.458
RRIRQRPPRLPRPRPRPETIPRP	-0.0395
RRIRGRPPRLPRPRPRPPSWPRP	1.24
RRIRFRPPRLPRPRPRPDMFPRP	-0.0758
RRIRDRPPRLPRPRPRPVIFPRP	0.212
RRIRARPPRLPRPRPRPYTWPRP	-0.428

Sequence	shrunken log2 fold change
RRIRYRPPRLPRPRPRPMSHPRP	-0.425
RRIRARPPRLPRPRPRPQPIPRP	0.16
RRIRWRPPRLPRPRPRPSRMPRP	0.0635
RRIRARPPRLPRPRPRPSEHPRP	-0.301
RRIRERPPRLPRPRPRPLNNPRP	-0.705
RRIRPRPPRLPRPRPRPQYKPRP	-0.129
RRIRQRPPRLPRPRPRPPREPRP	0.655
RRIRARPPRLPRPRPRPHWMPRP	0.0379
RRIRSRPPRLPRPRPRPKTNPRP	0.00294
RRIRKRPPRLPRPRPRPWVAPRP	0.282
RRIRERPPRLPRPRPRPCDGPRP	0.142
RRIRGRPPRLPRPRPRPNRDPRP	0.0612
RRIRLRPPRLPRPRPRPNRQPRP	-0.407
RRIRRRPPRLPRPRPRPTPKPRP	1.24
RRIRFRPPRLPRPRPRPKENPRP	-0.222
RRIRSRPPRLPRPRPRPVTFPRP	-0.21
RRIRFRPPRLPRPRPRPYTGPRP	-0.0357
RRIRVRPPRLPRPRPRPGVTPRP	0.0341
RRIRSRPPRLPRPRPRPGLQPRP	0.652
RRIRVRPPRLPRPRPRPMRAPRP	0.71
RRIRPRPPRLPRPRPRPLVCPRP	0.272
RRIRVRPPRLPRPRPRPSWMPRP	-0.139
RRIRVRPPRLPRPRPRPGTRPRP	-0.0152
RRIRLRPPRLPRPRPRPHTKPRP	-0.422
RRIRDRPPRLPRPRPRPQHKPRP	-0.217

Sequence	shrunken log2 fold change
RRIRMRPPRLPRPRPRPCVRPRP	0.0764
RRIRVRPPRLPRPRPRPAASPRP	0.267
RRIRIRPPRLPRPRPRPYWEPRP	-0.152
RRIRARPPRLPRPRPRPKEFPRP	0.355
RRIRNRPPRLPRPRPRPLKWPRP	0.0542
RRIRKRPPRLPRPRPRPMEYPRP	-0.00192
RRIRMRPPRLPRPRPRPTLPPRP	0.248
RRIRWRPPRLPRPRPRPIPHPRP	0.0496
RRIRNRPPRLPRPRPRPACNPRP	-0.148
RRIRVRPPRLPRPRPRPWRQPRP	0.2
RRIRTRPPRLPRPRPRPDISPRP	-0.038
RRIRMRPPRLPRPRPRPQMSPRP	0.174
RRIRSRPPRLPRPRPRPAWDPRP	0.281
RRIRLRPPRLPRPRPRPWQPPRP	-0.0454
RRIRNRPPRLPRPRPRPFLWPRP	-0.199
RRIRTRPPRLPRPRPRPVQWPRP	0.116
RRIRSRPPRLPRPRPRPATFPRP	-0.366
RRIRDRPPRLPRPRPRPWSIPRP	-0.105
RRIRFRPPRLPRPRPRPFEDPRP	-0.0916
RRIRGRPPRLPRPRPRPNINPRP	0.337
RRIRCRPPRLPRPRPRPLHHPRP	-0.469
RRIRGRPPRLPRPRPRPVHMPRP	-0.0938
RRIRDRPPRLPRPRPRPCVKPRP	-0.161
RRIRQRPPRLPRPRPRPIVDPRP	0.0252
RRIRNRPPRLPRPRPRPEKWPRP	-0.0101

Sequence	shrunken log2 fold change
RRIRTRPPRLPRPRPRPNCGPRP	0.0396
RRIRIRPPRLPRPRPRPDILPRP	-0.354
RRIRIRPPRLPRPRPRPNHVPRP	-0.278
RRIRARPPRLPRPRPRPDDMPRP	0.371
RRIRARPPRLPRPRPRPIPSPRP	-0.156
RRIRQRPPRLPRPRPRPEDHPRP	-0.0311
RRIRERPPRLPRPRPRPSLQPRP	0.175
RRIRRRPPRLPRPRPRPCVLPRP	-0.027
RRIRMRPPRLPRPRPRPVKIPRP	0.514
RRIRARPPRLPRPRPRPSISPRP	0.0682
RRIRPRPPRLPRPRPRPHCQPRP	-0.0117
RRIRKRPPRLPRPRPRPDYGPRP	0.111
RRIRTRPPRLPRPRPRPAMYPRP	-0.106
RRIRWRPPRLPRPRPRPGWDPRP	0.657
RRIRSRPPRLPRPRPRPCKLPRP	-0.218
RRIRPRPPRLPRPRPRPFCCPRP	0.0801
RRIRWRPPRLPRPRPRPIGHPRP	0.0282
RRIRHRPPRLPRPRPRPCVNPRP	-0.166
RRIRHRPPRLPRPRPRPSEHPRP	0.00525
RRIRLRPPRLPRPRPRPGAPPRP	0.672
RRIRIRPPRLPRPRPRPVDEPRP	-0.0203
RRIRYRPPRLPRPRPRPDRPPRP	-0.215
RRIRVRPPRLPRPRPRPCASPRP	0.116
RRIRDRPPRLPRPRPRPILVPRP	0.0243
RRIRPRPPRLPRPRPRPFKLPRP	-0.00835

Sequence	shrunken log2 fold change
RRIRSRPPRLPRPRPRPSVSPRP	-0.0446
RRIRQRPPRLPRPRPRPMYAPRP	0.151
RRIRWRPPRLPRPRPRPFAFPRP	-0.195
RRIRQRPPRLPRPRPRPRPFPRP	0.149
RRIRFRPPRLPRPRPRPHSPPRP	-0.389
RRIRKRPPRLPRPRPRPIKRPRP	0.0734
RRIRWRPPRLPRPRPRPCCVPRP	-0.134
RRIRNRPPRLPRPRPRPCWWPRP	0.0782
RRIRPRPPRLPRPRPRPNFSPRP	1.08
RRIRFRPPRLPRPRPRPHEEPRP	0.00592
RRIRTRPPRLPRPRPRPIDRPRP	-0.148
RRIRDRPPRLPRPRPRPWHIPRP	-0.058
RRIRSRPPRLPRPRPRPHMQPRP	-0.264
RRIRQRPPRLPRPRPRPHLVPRP	0.00244
RRIRMRPPRLPRPRPRPEMMPRP	0.316
RRIRGRPPRLPRPRPRPMKMPRP	0.00988
RRIRNRPPRLPRPRPRPQSCPRP	-0.00689
RRIRRRPPRLPRPRPRPCYHPRP	-0.169
RRIRCRPPRLPRPRPRPKYHPRP	-0.743
RRIRYRPPRLPRPRPRPLMKPRP	-0.179
RRIRMRPPRLPRPRPRPDNQPRP	0.0198
RRIRFRPPRLPRPRPRPRIIPRP	-0.514
RRIRARPPRLPRPRPRPTTWPRP	0.423
RRIRFRPPRLPRPRPRPNFLPRP	-0.277
RRIRDRPPRLPRPRPRPNGIPRP	0.012

Sequence	shrunken log2 fold change
RRIRKRPPRLPRPRPRPQKIPRP	-0.0746
RRIRIRPPRLPRPRPRPNMTPRP	-0.804
RRIRIRPPRLPRPRPRPAMNPRP	-0.495
RRIRNRPPRLPRPRPRPSPYPRP	-0.507
RRIRWRPPRLPRPRPRPPRGPRP	0.584
RRIRHRPPRLPRPRPRPCERPRP	-0.0535
RRIRLRPPRLPRPRPRPFCHPRP	0.0449
RRIRDRPPRLPRPRPRPVTAPRP	0.157
RRIRDRPPRLPRPRPRPQIFPRP	-0.00965
RRIRNRPPRLPRPRPRPVLIPRP	-0.27
RRIRDRPPRLPRPRPRPDAMPRP	-0.107
RRIRHRPPRLPRPRPRPNPTPRP	-0.193
RRIRQRPPRLPRPRPRPYVRPRP	-0.216
RRIRTRPPRLPRPRPRPGRHPRP	0.0235
RRIRERPPRLPRPRPRPYEDPRP	-0.0116
RRIRDRPPRLPRPRPRPGSVPRP	0.113
RRIRTRPPRLPRPRPRPTGPPRP	0.48
RRIRIRPPRLPRPRPRPNSDPRP	-0.267
RRIRARPPRLPRPRPRPWWNPRP	-0.108
RRIRARPPRLPRPRPRPHAKPRP	-0.0556
RRIRTRPPRLPRPRPRPMNQPRP	-0.941
RRIRARPPRLPRPRPRPLVKPRP	0.0577
RRIRTRPPRLPRPRPRPHDYPRP	-0.196
RRIRHRPPRLPRPRPRPKYDPRP	-0.246
RRIRTRPPRLPRPRPRPKHNPRP	-0.362
